Measured values as given in patent publication US20230167200A1 (published 2023).

What was measured:
[1] = molecular target: human PD-L1 expressed on CHO cells (CHO-hPD-L1 cells) (human, UniProt Q9NZQ7 19-290); assay: flow cytometry cell binding
[2] = molecular target: T1, human PD-L2 expressed on CHO cells (CHO-hPD-L2 cells) (human, UniProt Q9BQ51 20-273); assay: flow cytometry cell binding
T1 chain: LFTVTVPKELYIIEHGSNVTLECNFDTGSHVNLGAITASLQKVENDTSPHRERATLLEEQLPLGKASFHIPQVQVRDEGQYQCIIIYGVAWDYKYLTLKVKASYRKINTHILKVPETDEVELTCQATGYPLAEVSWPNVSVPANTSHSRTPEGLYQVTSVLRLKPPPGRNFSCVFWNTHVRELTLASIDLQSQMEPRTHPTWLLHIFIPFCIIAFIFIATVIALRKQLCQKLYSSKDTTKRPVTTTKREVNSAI

human PD-L1 expressed on CHO cells (CHO-hPD-L1 cells), sequence (Q9NZQ7 19-290): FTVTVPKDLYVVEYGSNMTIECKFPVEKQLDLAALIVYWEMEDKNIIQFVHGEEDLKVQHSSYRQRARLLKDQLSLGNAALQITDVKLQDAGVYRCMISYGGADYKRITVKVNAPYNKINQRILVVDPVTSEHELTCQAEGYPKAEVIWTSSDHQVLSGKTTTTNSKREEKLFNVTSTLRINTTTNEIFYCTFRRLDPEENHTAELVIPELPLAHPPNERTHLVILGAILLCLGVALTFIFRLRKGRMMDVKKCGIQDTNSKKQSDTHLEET

EC50 [1]: 3.79 nM
EC50 [2]: 1.25 nM
B1: anti-PD-L1/PD-L2 bispecific antibody Fc fusion protein Bi-203-204 (bispecific antibody, V domains shown)
V domain 1: QVQLVESGGGLVKPGGSLRLSCAASGHTFIIYAIGWFRQAPGKGLEFVATINWSGSMTNYADSVKGRFTISRDNAKNTVYLQMNSLKPDDTAVYYCAAYVGATISTAHSRYDYWGQGTLVTVSS
V domain 2: EVQLVESGGGLVQPGGSLRLSCAASGRTFSSMTIGWFRQAPGKGLEFVSGIGWTSGLTVYADSVKGRFTISRDNAKNSMYLQMNSLRAEDTAVYYCAADSMNRGQFDYWGQGTLVTVSS
